Laboratory results as given in the supplement of paper PMC7125110.
± gives the standard error. For part of these data: Fewer inactive variants are shown than the library holds.

B1: glmS ribozyme (parent)
chain: AUAAAAGCGCCAGAACUACAGAAAUGUAGUUGACGAGGAGGAGGUUUAUCGAAUUUUCGGCGGAUGCCUCCAAA

Assays:
Settings in all cases: with glucosamine-6-phosphate
glucosamine-6-phosphate [1] = variants of: B1; assay: self-cleavage kobs at 40 uM GlcN6P; higher = faster cleavage; RNA array
How it was run: (§1)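 Glucosamine-6-phosphate, from 40 μM to 10 mM in HEPES/KCl/Mg(OAc)2 buffer, was flowed over sequenced MiSeq chips carrying barcoded ribozyme variants transcribed in situ by E. coli RNA polymerase. A hybridised Cy3 probe tracked the variants at 37 °C as tiles were imaged over ~14 h. kobs, kcat and KM were obtained by fitting normalised per-tile medians to exponential decays and then applying weighted Michaelis–Menten fits across concentrations.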

glucosamine-6-phosphate [2] = variants of: B1; assay: kcat; higher = faster cleavage; RNA array
How it was run: as §1

glucosamine-6-phosphate [3] = variants of: B1; assay: self-cleavage kobs at 160 uM GlcN6P; higher = faster cleavage; RNA array
How it was run: as §1

glucosamine-6-phosphate [4] = variants of: B1; assay: self-cleavage kobs at 640 uM GlcN6P; higher = faster cleavage; RNA array
How it was run: as §1

glucosamine-6-phosphate [5] = variants of: B1; assay: self-cleavage kobs at 2500 uM GlcN6P; higher = faster cleavage; RNA array
How it was run: as §1

glucosamine-6-phosphate [6] = variants of: B1; assay: KM; higher = weaker cofactor use; RNA array
How it was run: as §1

glucosamine-6-phosphate [7] = variants of: B1; assay: self-cleavage kobs at 10000 uM GlcN6P; higher = faster cleavage; RNA array
How it was run: as §1

Variant | self-cleavage kobs at 40 uM GlcN6P (glucosamine-6-phosphate [1]) [s⁻¹] | kcat (glucosamine-6-phosphate [2]) [s⁻¹] | self-cleavage kobs at 160 uM GlcN6P (glucosamine-6-phosphate [3]) [s⁻¹] | self-cleavage kobs at 640 uM GlcN6P (glucosamine-6-phosphate [4]) [s⁻¹] | self-cleavage kobs at 2500 uM GlcN6P (glucosamine-6-phosphate [5]) [s⁻¹] | KM (glucosamine-6-phosphate [6]) [µM] | self-cleavage kobs at 10000 uM GlcN6P (glucosamine-6-phosphate [7]) [s⁻¹]
A6G C67A C68U | < 1e-05 | – | – | – | – | – | –
G66C U69G | – | 5.5e-05 ± 1.9e-05 | 4.18e-05 ± 1.2e-05 | 8.02e-05 ± 1.2e-05 | 6.24e-05 ± 1.2e-05 | – | –
A64G C70U | 7.77e-05 ± 7.5e-06 | 0.00369 ± 0.001 | 0.000149 ± 2.2e-05 | 0.000786 ± 7.7e-05 | 0.00162 ± 0.00027 | 2630 ± 1000 | 0.00298 ± 0.00027
A6G A12G U31A U54A C71A | < 1e-05 | – | < 1e-05 | < 1e-05 | < 1e-05 | – | –
A64C U65A | < 1e-05 | 2.96e-05 ± 5.1e-06 | < 1e-05 | – | – | – | –
A6G A52U | < 1e-05 | – | < 1e-05 | < 1e-05 | – | – | –
A6G A12C U45G C58U G59C G62A C68G | < 1e-05 | – | – | – | – | – | < 1e-05
A6C G29U C34U U47G C58G C70G | 0.000135 ± 5e-05 | – | – | 0.000686 ± 0.0002 | – | – | 0.000144 ± 3.9e-05
A6C A52U G60U | < 1e-05 | – | – | – | – | – | –
A6G C10A G13A G62A U65A | < 1e-05 | – | – | – | – | – | < 1e-05
A6C A48U | < 1e-05 | – | – | – | < 1e-05 | – | –
A64G U65G G66U C70G | – | 2.23e-05 ± 6.3e-06 | – | – | – | – | –
A6G C8G A39C U55C C70A | < 1e-05 | – | – | – | – | – | < 1e-05
A6G C50U C58U U65G | < 1e-05 | – | – | < 1e-05 | – | – | < 1e-05
A52C U65G | – | – | – | – | – | 197 ± 67 | –
A6G C71G | < 1e-05 | – | < 1e-05 | < 1e-05 | < 1e-05 | – | –
U65A C70A | – | 7.41e-05 ± 5e-06 | 4.4e-05 ± 1.4e-05 | 5.79e-05 ± 1.2e-05 | 6.44e-05 ± 1.3e-05 | 128 ± 49 | 8.15e-05 ± 1.3e-05
G63U C68G | < 1e-05 | 1.09e-05 ± 2.8e-06 | – | – | < 1e-05 | – | –
G63A C71A | – | < 1e-05 | – | – | – | – | –
A64U U65G | – | 1.26e-05 ± 1e-06 | – | – | – | – | –

Variant | self-cleavage kobs at 40 uM GlcN6P (glucosamine-6-phosphate [1]) [s⁻¹] | kcat (glucosamine-6-phosphate [2]) [s⁻¹] | self-cleavage kobs at 160 uM GlcN6P (glucosamine-6-phosphate [3]) [s⁻¹] | self-cleavage kobs at 640 uM GlcN6P (glucosamine-6-phosphate [4]) [s⁻¹] | self-cleavage kobs at 2500 uM GlcN6P (glucosamine-6-phosphate [5]) [s⁻¹] | KM (glucosamine-6-phosphate [6]) [µM] | self-cleavage kobs at 10000 uM GlcN6P (glucosamine-6-phosphate [7]) [s⁻¹]
G62C C70G C71A | – | 3.99e-05 ± 1.8e-05 | – | 6.26e-05 ± 2.7e-05 | 5.21e-05 ± 2.2e-05 | – | –
G66U C70A | – | 7.35e-05 ± 1.3e-05 | – | 0.000101 ± 4.5e-05 | 8.96e-05 ± 3e-05 | – | 6.04e-05 ± 2e-05
G66U C67G | 3e-05 ± 7.9e-06 | 0.000827 ± 0.00015 | 4.82e-05 ± 7.9e-06 | 0.000262 ± 5.1e-05 | 0.000418 ± 4.7e-05 | 2210 ± 730 | 0.000687 ± 6.4e-05
G62C U69C | < 1e-05 | < 1e-05 | – | < 1e-05 | – | – | –
A6G A15C A64C | < 1e-05 | – | – | – | < 1e-05 | – | –
C67U | 0.000527 ± 1.7e-05 | 0.0229 ± 0.0033 | 0.0016 ± 0.00012 | 0.00529 ± 0.0002 | 0.0117 ± 0.00055 | 1910 ± 390 | 0.0215 ± 0.00087
C67G | 3.28e-05 ± 1e-06 | 0.00185 ± 0.00017 | 0.000109 ± 2.8e-06 | 0.00046 ± 4e-05 | 0.00108 ± 3.9e-05 | 2390 ± 300 | 0.00145 ± 3.7e-05
C67A | 0.000434 ± 1.5e-05 | 0.0168 ± 0.0027 | 0.00132 ± 8.4e-05 | 0.004 ± 0.00015 | 0.0101 ± 0.00044 | 1730 ± 380 | 0.0155 ± 0.00076
A6G A52U C61G | < 1e-05 | – | – | – | – | – | –
A6C C10G | < 1e-05 | – | < 1e-05 | < 1e-05 | – | – | < 1e-05
C68G U69A | – | 1.57e-05 ± 5.7e-06 | – | – | – | – | –
C68G U69G | – | 2.17e-05 ± 5e-06 | – | – | 2.65e-05 ± 1.2e-05 | – | –
C68U C70U | – | 2.24e-05 ± 7.8e-06 | – | – | 3.68e-05 ± 7.6e-06 | – | 1.88e-05 ± 3.8e-06
A6C A39G G41A U46A A64G | < 1e-05 | – | – | – | – | – | < 1e-05
A6C C50G C61G | 0.000119 ± 3.4e-05 | – | 0.000251 ± 7.8e-05 | 0.00102 ± 0.00025 | 0.000289 ± 0.0001 | – | 0.000343 ± 6.1e-05
A6C C50G C70U | 0.000111 ± 3.3e-05 | – | – | 0.000347 ± 0.0001 | 0.000114 ± 2.7e-05 | – | 0.000121 ± 2.9e-05
C70G C71A | – | 5.66e-05 ± 1.4e-05 | 8.13e-05 ± 1.8e-05 | 7.38e-05 ± 1.2e-05 | 6.86e-05 ± 1.8e-05 | – | 3.7e-05 ± 9.8e-06
A6G A12G G66A | < 1e-05 | – | – | < 1e-05 | – | – | –
A6G C16G G29C A39G G43C U47G G51U C61A | < 1e-05 | – | – | – | – | – | < 1e-05
U65G C67U | 3.92e-05 ± 7.9e-06 | 0.00306 ± 0.00057 | 0.000142 ± 1.8e-05 | 0.000459 ± 5.7e-05 | 0.00101 ± 0.00014 | 3590 ± 950 | 0.00248 ± 0.00025
